Data as given in the Human Domainome abundance scans (Beltran et al. 2025).
± gives the uncertainty stated by the source.

B1: Transitional endoplasmic reticulum ATPase, residues 26 to 106; numbered along this chain, P55072 (parent)
chain: LIVDEAINEDNSVVSLSQPKMDELQLFRGDTVLLKGKKRREAVCIVLSDDTCSDEKIRMNRVVRNNLRVRLGDVISIQPCP

Variants of: B1
Experiment: abundance fitness (aPCA) (normalised: wild type 0, dead -1); higher = more abundant; growth selection in yeast, the domain comes from the species named
Conditions: Homo sapiens
Work on D4F yielded an abundance fitness of -0.345 ± 0.11. C52A showed an abundance fitness of -0.253 ± 0.069. Variant N8G has an abundance fitness of 0.022 ± 0.037. With I57P the abundance fitness was -0.933 ± 0.17. Q78G gave an abundance fitness of -0.069 ± 0.048. P81S gave an abundance fitness of -0.106 ± 0.064. In the case of P79I, the abundance fitness is reported as -0.181 ± 0.14. With D30F the abundance fitness was -0.638 ± 0.32. Q18I showed an abundance fitness of -0.088 ± 0.076. Variant D54V has an abundance fitness of -0.016 ± 0.049. In the case of K35W, the abundance fitness is reported as -0.154 ± 0.17. E55Q gave an abundance fitness of 0.003 ± 0.084. R28Q gave an abundance fitness of -0.008 ± 0.066. N60E showed an abundance fitness of -0.266 ± 0.11. With V63I the abundance fitness was 0.029 ± 0.14. With N11K the abundance fitness was -0.084 ± 0.12. R40A showed an abundance fitness of 0.097 ± 0.086. For A6P, the abundance fitness was 0.024 ± 0.087. L34A gave an abundance fitness of -0.292 ± 0.1. Work on K37W yielded an abundance fitness of -0.183 ± 0.1. In the case of I57L, the abundance fitness is reported as -0.224 ± 0.066. In the case of V63F, the abundance fitness is reported as -0.061 ± 0.14. In the case of R40T, the abundance fitness is reported as 0.086 ± 0.082. P81Y showed an abundance fitness of -0.224 ± 0.16. With S12C the abundance fitness was -0.056 ± 0.07. In the case of L24H, the abundance fitness is reported as -0.366 ± 0.21. V46T showed an abundance fitness of -0.147 ± 0.085. Work on A6Y yielded an abundance fitness of -0.404 ± 0.21. S17D showed an abundance fitness of -1.01 ± 0.34. With E5S the abundance fitness was 0.029 ± 0.052. S15P showed an abundance fitness of -0.591 ± 0.097. L34G gave an abundance fitness of -0.46 ± 0.12. I57E gave an abundance fitness of -0.804 ± 0.15. Work on S15V yielded an abundance fitness of 0.07 ± 0.037. Variant E23R has an abundance fitness of -0.09 ± 0.064. For I7A, the abundance fitness was -0.019 ± 0.051. Work on L33W yielded an abundance fitness of -0.155 ± 0.065. L24A showed an abundance fitness of -0.553 ± 0.054. Variant R58I has an abundance fitness of -0.089 ± 0.2. Work on E41T yielded an abundance fitness of -0.123 ± 0.098. Work on V43Y yielded an abundance fitness of 0.072 ± 0.14. With A42E the abundance fitness was -0.117 ± 0.093. With V63T the abundance fitness was 0.072 ± 0.12. In the case of P79M, the abundance fitness is reported as -0.076 ± 0.11. R40I showed an abundance fitness of -0.046 ± 0.13. V43E gave an abundance fitness of 0.063 ± 0.089. For R39G, the abundance fitness was 0.008 ± 0.045. Variant S15E has an abundance fitness of 0.008 ± 0.076. Work on V14F yielded an abundance fitness of -1.06 ± 0.25. Variant F27Y has an abundance fitness of -0.109 ± 0.075. Work on G72R yielded an abundance fitness of -0.177 ± 0.051. With A6K the abundance fitness was -0.154 ± 0.079. V32Q gave an abundance fitness of -0.785 ± 0.18. For S15M, the abundance fitness was -0.058 ± 0.079. D10M gave an abundance fitness of -0.054 ± 0.058. Variant C52Y has an abundance fitness of -0.439 ± 0.12. Variant V43I has an abundance fitness of -0.038 ± 0.097. F27D gave an abundance fitness of 0.069 ± 0.1. In the case of E23N, the abundance fitness is reported as -0.112 ± 0.31. I57T gave an abundance fitness of -0.622 ± 0.11. With I2N the abundance fitness was -0.059 ± 0.14. Work on L47M yielded an abundance fitness of 0.082 ± 0.095. Variant R58G has an abundance fitness of -0.156 ± 0.056. In the case of L47G, the abundance fitness is reported as 0.024 ± 0.043. Work on K38E yielded an abundance fitness of -0.09 ± 0.11. For D49L, the abundance fitness was -0.904 ± 0.15. R70W gave an abundance fitness of -0.127 ± 0.072. Variant D73L has an abundance fitness of -0.922 ± 0.13. N66L gave an abundance fitness of -0.012 ± 0.066. In the case of S12L, the abundance fitness is reported as -0.019 ± 0.053. With P81D the abundance fitness was 0.058 ± 0.12. Variant I45V has an abundance fitness of 0.028 ± 0.032. For R70T, the abundance fitness was 0.017 ± 0.085. In the case of S48H, the abundance fitness is reported as -0.23 ± 0.12. Work on R28C yielded an abundance fitness of 0.053 ± 0.15. For E23H, the abundance fitness was -0.2 ± 0.21. K56D showed an abundance fitness of -0.271 ± 0.15. Work on Q25E yielded an abundance fitness of -0.156 ± 0.081. I75K showed an abundance fitness of -1.05 ± 0.3. Variant D49Q has an abundance fitness of -0.307 ± 0.11. With L33R the abundance fitness was -0.068 ± 0.046. Variant F27Q has an abundance fitness of -0.098 ± 0.1. With L34N the abundance fitness was -0.891 ± 0.28. L24C gave an abundance fitness of -0.574 ± 0.12. With Q18P the abundance fitness was -0.078 ± 0.092. V13D showed an abundance fitness of -0.103 ± 0.079. For K35C, the abundance fitness was 0.04 ± 0.18. For L33P, the abundance fitness was -0.955 ± 0.13. Variant V32S has an abundance fitness of -0.854 ± 0.11. With I7Q the abundance fitness was -0.17 ± 0.089. M59F gave an abundance fitness of -0.333 ± 0.11. For L24Q, the abundance fitness was -0.516 ± 0.14. Variant R28M has an abundance fitness of 0.011 ± 0.092. With D30Q the abundance fitness was 0.103 ± 0.1. In the case of S76F, the abundance fitness is reported as -0.043 ± 0.11. Variant V62D has an abundance fitness of 0.004 ± 0.12. N60A gave an abundance fitness of -0.009 ± 0.075. R68D showed an abundance fitness of -0.064 ± 0.12. With P19C the abundance fitness was -0.179 ± 0.11. Variant I45R has an abundance fitness of 0.054 ± 0.055. With N65R the abundance fitness was -0.044 ± 0.054. Variant I57M has an abundance fitness of -0.198 ± 0.084. I57G showed an abundance fitness of -0.951 ± 0.15. For D22L, the abundance fitness was -0.008 ± 0.048. Work on S12P yielded an abundance fitness of -0.126 ± 0.065. G36F showed an abundance fitness of -0.135 ± 0.092. Work on N11S yielded an abundance fitness of 0.039 ± 0.051. Variant R61L has an abundance fitness of -0.006 ± 0.062. Work on P79S yielded an abundance fitness of -0.016 ± 0.069. K20N gave an abundance fitness of -0.093 ± 0.1. For L24S, the abundance fitness was -0.74 ± 0.095. K20Q showed an abundance fitness of -0.014 ± 0.11. Work on N65L yielded an abundance fitness of -0.074 ± 0.051. V43D showed an abundance fitness of -0.093 ± 0.11. R58E showed an abundance fitness of -0.376 ± 0.098. For R61M, the abundance fitness was -0.178 ± 0.19. With V74I the abundance fitness was -0.115 ± 0.091. K20D gave an abundance fitness of -0.39 ± 0.22. Variant T31N has an abundance fitness of -0.023 ± 0.11. With D4V the abundance fitness was -0.082 ± 0.048. N60M gave an abundance fitness of -0.552 ± 0.16. With C44I the abundance fitness was -0.189 ± 0.099. For S48Y, the abundance fitness was -0.168 ± 0.1. In the case of C80R, the abundance fitness is reported as -0.066 ± 0.071. With C52P the abundance fitness was -0.624 ± 0.13. With M21P the abundance fitness was -0.902 ± 0.25. In the case of R70M, the abundance fitness is reported as -0.077 ± 0.092. L34C showed an abundance fitness of 0.26 ± 0.41. With K38I the abundance fitness was -0.282 ± 0.15. For S12M, the abundance fitness was 0.088 ± 0.093. For D22M, the abundance fitness was -0.06 ± 0.066. S53N gave an abundance fitness of 0.044 ± 0.15. Work on D50H yielded an abundance fitness of -0.021 ± 0.16. In the case of V13M, the abundance fitness is reported as -0.143 ± 0.083. Work on N8W yielded an abundance fitness of -0.13 ± 0.055. Work on L1A yielded an abundance fitness of -0.126 ± 0.11. Variant D49F has an abundance fitness of -0.936 ± 0.29. For T31L, the abundance fitness was -0.129 ± 0.061. In the case of I2D, the abundance fitness is reported as -0.806 ± 0.17. Variant E9V has an abundance fitness of -0.157 ± 0.052. E55W gave an abundance fitness of -0.148 ± 0.058. Variant E9K has an abundance fitness of -0.216 ± 0.079. In the case of C52K, the abundance fitness is reported as -0.334 ± 0.14. With M59G the abundance fitness was -1.01 ± 0.18. Variant V74W has an abundance fitness of -0.087 ± 0.091. Work on S48E yielded an abundance fitness of 0.04 ± 0.079. G36Y showed an abundance fitness of -0.186 ± 0.12. Q78P gave an abundance fitness of -0.256 ± 0.24. In the case of R39N, the abundance fitness is reported as -0.17 ± 0.11. D49H showed an abundance fitness of -0.251 ± 0.19. With E5F the abundance fitness was 0.016 ± 0.084. Variant K38C has an abundance fitness of -0.225 ± 0.18. In the case of I77C, the abundance fitness is reported as -0.074 ± 0.2. E41C showed an abundance fitness of -0.399 ± 0.1. R40E showed an abundance fitness of -0.051 ± 0.13. K35Q showed an abundance fitness of 0.078 ± 0.088. L1I gave an abundance fitness of 0.128 ± 0.14. Variant R64V has an abundance fitness of -0.321 ± 0.065. Work on L1R yielded an abundance fitness of -0.744 ± 0.23. K20F gave an abundance fitness of -0.233 ± 0.09. In the case of T31D, the abundance fitness is reported as -0.27 ± 0.1. Work on R68F yielded an abundance fitness of -0.165 ± 0.14. For C44L, the abundance fitness was -0.02 ± 0.034. In the case of R58T, the abundance fitness is reported as -0.515 ± 0.13. For L47E, the abundance fitness was 0.055 ± 0.09. D22A showed an abundance fitness of -0.109 ± 0.05. With R64W the abundance fitness was -0.684 ± 0.18.
